Reference: publication doi:10.1101/713511

Assays:
SERF1a [1] = target: T1, SERF1a (human, UniProt O75920-2 1-62); assay: ITC
T1 sequence: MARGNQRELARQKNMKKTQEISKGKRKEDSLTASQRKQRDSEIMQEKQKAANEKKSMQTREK

Atto550-SERF1a [2] = target: T2, Atto550-SERF1a (human, UniProt O75920-2 1-62); assay: fluorescence anisotropy
T2 sequence: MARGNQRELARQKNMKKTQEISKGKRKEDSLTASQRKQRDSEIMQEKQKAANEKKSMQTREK

Atto550-SERF1a [3] = target: T2, Atto550-SERF1a; assay: fluorescence anisotropy; remark: listed apart in the source
YDL085C-A = target: T3, YDL085C-A (S. cerevisiae, UniProt Q3E7B7 1-68); assay: fluorescence anisotropy
T3 sequence: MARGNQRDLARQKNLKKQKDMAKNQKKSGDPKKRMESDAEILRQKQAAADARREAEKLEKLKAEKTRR

SERF1a [4] = target: T1, SERF1a; assay: fluorescence anisotropy

B1: R21(-) / 21R(-) (ssRNA)
RNA: ACUGCUAGAGAUUUUCCACAU
Kd (SERF1a [1]): 5.99 ± 2.32 µM | Kd (Atto550-SERF1a [2]): 4.39 ± 1.59 µM

B2: dsDNA 21mer (dsDNA)
DNA 1: ATGTGGAAAATCTCTAGCAGT
DNA 2: ACTGCTAGAGATTTTCCACAT
binding result (Atto550-SERF1a [3]): no binding

B3: Cy3-R21(-) (ssRNA)
RNA: ACUGCUAGAGAUUUUCCACAU
Kd (YDL085C-A): 2.35 ± 0.56 µM | Kd (SERF1a [4]): 4.81 ± 0.48 µM
